The assay addresses T1, GST-GUS (UniProt P05804 1-603, limits assumed).
T1 construct: Negative control bait; also called GST-tagged beta-glucuronidase; negative control GST-GUS; not shown: GST tag
The experiment in a line: in vitro GST pull-down on glutathione sepharose beads, immunoblot for GST and FLAG. As to the method:
E. coli expressed GST-tagged bait proteins were incubated with E. coli expressed FLAG-tagged prey proteins before purification on glutathione sepharose beads and immunoblotting for GST and FLAG.
Following this growth phase, the cultures were centrifuged at 4500×g for 10 minutes, the supernatants were discarded and the pellets resuspended at 4° C. in 2.5 ml TGH Buffer (50 mM HEPES (pH7.5), 150 mM NaCl, 1% Triton-X-100, 10% Glycerol, 1 mM DTT, 1 complete EDTA-free protease inhibitor tablet (per 50 ml) (Roche 11873580001)). The bacterial suspension was then sonicated (on ice) for four bursts of ten seconds, separated by 20-second intervals, before being centrifuged at 12 000×g for 20 minutes to pellet any cellular debris. Cleared sonicates were then stored on ice while a 50% slurry of washed glutathione sepharose beads (GE Life Sciences 17-0756-01) was prepared according to the manufacturer's instructions. 20 μl of the 50% glutathione sepharose slurry was then combined with 2.5 ml of protein extract from bait protein (GST-tagged) expressing cells and 2.5 ml of protein extract from prey protein (HA-/FLAG-/HIS-tagged) expressing cells. […] After washing, proteins were eluted with 35 μl GST-elution buffer (50 mM TRIS-glycine (pH8.0), 10 mM reduced glutathione) over 30 minutes at 4° C. before being analysed by western blot analysis. […]

T1 sequence (P05804 whole entry): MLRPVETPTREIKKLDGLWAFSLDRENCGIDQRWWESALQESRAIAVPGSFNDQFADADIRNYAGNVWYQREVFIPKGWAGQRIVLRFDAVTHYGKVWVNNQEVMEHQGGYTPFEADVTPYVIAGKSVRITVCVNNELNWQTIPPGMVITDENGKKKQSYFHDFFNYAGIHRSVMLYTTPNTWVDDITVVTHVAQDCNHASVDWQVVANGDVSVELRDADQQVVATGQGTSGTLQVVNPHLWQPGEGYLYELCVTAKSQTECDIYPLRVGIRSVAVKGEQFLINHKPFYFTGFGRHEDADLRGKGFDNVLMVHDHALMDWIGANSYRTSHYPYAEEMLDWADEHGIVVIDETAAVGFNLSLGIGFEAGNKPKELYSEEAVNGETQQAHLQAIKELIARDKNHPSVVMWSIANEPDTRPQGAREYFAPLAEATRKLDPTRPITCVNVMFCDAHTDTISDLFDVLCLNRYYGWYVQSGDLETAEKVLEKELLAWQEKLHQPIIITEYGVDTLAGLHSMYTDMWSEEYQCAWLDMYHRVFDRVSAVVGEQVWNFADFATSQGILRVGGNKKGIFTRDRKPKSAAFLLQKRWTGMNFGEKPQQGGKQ

B1: FLAG-DA1 (other)
chain: MGWFNKIFKGSNQRLRVGNNKHNHNVYYDNYPTASHDDEPSAADTDADNDEPHHTQEPSTSEDNTSNDQENEDIDRAIALSLLEENQEQTSISGKYSMPVDEDEQLARALQESMVVGNSPRHKSGSTYDNGNAYGAGDLYGNGHMYGGGNVYANGDIYYPRPITFQMDFRICAGCNMEIGHGRFLNCLNSLWHPECFRCYGCSQPISEYEFSTSGNYPFHKACYRERYHPKCDVCSHFIPTNHAGLIEYRAHPFWVQKYCPSHEHDATPRCCSCERMEPRNTRYVELNDGRKLCLECLDSAVMDTMQCQPLYLQIQNFYEGLNMKVEQEVPLLLVERQALNEAREGEKNGHYHMPETRGLCLSEEQTVSTVRKRSKHGTGKWAGNITEPYKLTRQCEVTAILILFGLPRLLTGSILAHEMMHAWMRLKGFRTLSQDVEEGICQVMAHKWLDAELAAGSTNSNAASSSSSSQGLKKGPRSQYERKLGEFFKHQIESDASPVYGDGFRAGRLAVHKYGLRKTLEHIQMTGRFPV
notes: E. coli expressed prey protein; also called FLAG-tagged wild-type DA1; AtDA1; not shown: FLAG tag
Consider B1, for which the binding result was “no binding”.

B2: FLAG-da1lim8 (other)
chain: MGWFNKIFKGSNQRLRVGNNKHNHNVYYDNYPTASHDDEPSAADTDADNDEPHHTQEPSTSEDNTSNDQENEDIDRAIALSLLEENQEQTSISGKYSMPVDEDEQLARALQESMVVGNSPRHKSGSTYDNGNAYGAGDLYGNGHMYGGGNVYANGDIYYPRPITFQMDFRIGAGGNMEIGHGRFLNCLNSLWHPECFRGYGGSQPISEYEFSTSGNYPFHKACYRERYHPKCDVCSHFIPTNHAGLIEYRAHPFWVQKYCPSHEHDATPRCCSCERMEPRNTRYVELNDGRKLCLECLDSAVMDTMQCQPLYLQIQNFYEGLNMKVEQEVPLLLVERQALNEAREGEKNGHYHMPETRGLCLSEEQTVSTVRKRSKHGTGKWAGNITEPYKLTRQCEVTAILILFGLPRLLTGSILAHEMMHAWMRLKGFRTLSQDVEEGICQVMAHKWLDAELAAGSTNSNAASSSSSSQGLKKGPRSQYERKLGEFFKHQIESDASPVYGDGFRAGRLAVHKYGLRKTLEHIQMTGRFPV
notes: E. coli expressed prey protein; It is a DA1 variant with a mutated LIM domain; also called FLAG-tagged DA1lim8; not shown: FLAG tag
With B2, the binding result is “no binding”.

The values are drawn from patent publication US20190352660A1 (PLANT BIOSCIENCE, published 2019).
